Assay results: publication PMC9352680, “A comprehensive thermodynamic model for RNA binding by the Saccharomyces cerevisiae Pumilio protein PUF4”
Numbering of substitutions follows the chain as printed. Names may count otherwise.

T1: PUF4 RNA-binding domain (Saccharomyces cerevisiae, UniProt P25339 537-888)
T1 sequence: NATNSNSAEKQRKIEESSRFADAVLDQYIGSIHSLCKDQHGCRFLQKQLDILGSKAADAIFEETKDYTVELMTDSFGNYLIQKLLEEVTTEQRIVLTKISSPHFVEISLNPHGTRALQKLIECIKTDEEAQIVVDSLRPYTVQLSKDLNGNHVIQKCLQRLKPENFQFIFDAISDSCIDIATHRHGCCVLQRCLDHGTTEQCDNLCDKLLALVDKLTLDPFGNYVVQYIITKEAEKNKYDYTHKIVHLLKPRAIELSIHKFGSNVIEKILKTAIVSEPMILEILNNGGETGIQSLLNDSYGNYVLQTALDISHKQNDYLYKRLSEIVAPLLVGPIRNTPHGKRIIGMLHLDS

B1: Ib_S1_P4E.1_K4.1_C4.1_H4.1_A4.1_[T7C]_F4.1_[T8C]_T4.1 (ssRNA)
RNA: UCUCUUUGUAUACCAUCUCUU
B2: Ib_S1_P4E.1_K4.1_C4.1_H4.1_A4.1_[T7A]_F4.1_[T8A]_T4.1 (ssRNA)
RNA: UCUCUUUGUAUAAAAUCUCUU
B3: Ic_S1_P4E.1_K4.1_C4.1_H4.1_A4.1_[T5C]_F4.1_[A9G]_T4.1 (ssRNA)
RNA: UCUCUUUGUACAUUGUCUCUU
B4: Ia_S1_P4E.1_K4.1_C4.1_H4.1_[A4T]_A4.1_F4.1_T4.1 (ssRNA)
RNA: UCUCUUUGUUUAUUAUCUCUU
B5: Ic_S4_P4E.1_K4.1_C4.1_H4.1_A4.1_[A6C]_[T7G]_F4.1_[T8G]_[A9C]_T4.1 (ssRNA)
RNA: UUUGACAACUGAUCGUUCUUUCUUGUAUCGGCUUCUUUCUCGAUCAGUUGUCUUU
B6: Ic_S4_P4E.1_K4.1_C4.1_H4.1_A4.1_[A6T]_[T7C]_F4.1_[T8C]_[A9G]_T4.1 (ssRNA)
RNA: B5 RNA with C29U, G30C, G31C, C32G
B7: Ic_S4_P4E.1_K4.1_C4.1_H4.1_A4.1_[A6T]_F4.1_[T8G]_[A9T]_T4.1 (ssRNA)
RNA: B5 RNA with C29U, G30U, C32U
B8: Ic_S4_P4E.1_K4.1_C4.1_H4.1_A4.1_[A6C]_[T7C]_F4.1_[A9G]_T4.1 (ssRNA)
RNA: B5 RNA with G30C, G31U, C32G
B9: Ic_S4_P4E.1_K4.1_C4.1_H4.1_A4.1_[A6T]_[T7C]_F4.1_[A9G]_T4.1 (ssRNA)
RNA: B5 RNA with C29U, G30C, G31U, C32G
B10: Ic_S4_P4E.1_K4.1_C4.1_H4.1_A4.1_[A6T]_[T7C]_F4.1_[T8G]_[A9C]_T4.1 (ssRNA)
RNA: B5 RNA with C29U, G30C
B11: Ic_S4_P4E.1_K4.1_C4.1_H4.1_A4.1_[A6T]_[T7A]_F4.1_[T8C]_T4.1 (ssRNA)
RNA: B5 RNA with C29U, G30A, G31C, C32A
B12: Ic_S4_P4E.1_K4.1_C4.1_H4.1_A4.1_[A6C]_F4.1_[T8C]_[A9C]_T4.1 (ssRNA)
RNA: B5 RNA with G30U, G31C
B13: Ic_S4_P4E.1_K4.1_C4.1_H4.1_A4.1_[T7G]_F4.1_[T8C]_[A9T]_T4.1 (ssRNA)
RNA: B5 RNA with C29A, G31C, C32U
B14: Ic_S4_P4E.1_K4.1_C4.1_H4.1_A4.1_[A6T]_[T7C]_F4.1_[A9T]_T4.1 (ssRNA)
RNA: B5 RNA with C29U, G30C, G31U, C32U
B15: Ic_S4_P4E.1_K4.1_C4.1_H4.1_A4.1_[A6T]_F4.1_[A9T]_T4.1 (ssRNA)
RNA: B5 RNA with C29U, G30U, G31U, C32U
B16: Ic_S4_P4E.1_K4.1_C4.1_H4.1_A4.1_[T7G]_F4.1_[T8C]_[A9C]_T4.1 (ssRNA)
RNA: B5 RNA with C29A, G31C
B17: Ic_S4_P4E.1_K4.1_C4.1_H4.1_A4.1_[A6T]_F4.1_[T8A]_T4.1 (ssRNA)
RNA: B5 RNA with C29U, G30U, G31A, C32A
B18: Ic_S4_P4E.1_K4.1_C4.1_H4.1_A4.1_[A6C]_F4.1_[T8G]_[A9G]_T4.1 (ssRNA)
RNA: B5 RNA with G30U, C32G
B19: Ic_S4_P4E.1_K4.1_C4.1_H4.1_A4.1_[A6C]_[T7C]_F4.1_[T8C]_[A9G]_T4.1 (ssRNA)
RNA: B5 RNA with G30C, G31C, C32G
B20: Ic_S4_P4E.1_K4.1_C4.1_H4.1_A4.1_[T7A]_F4.1_[T8C]_[A9G]_T4.1 (ssRNA)
RNA: B5 RNA with C29A, G30A, G31C, C32G
B21: Ic_S4_P4E.1_K4.1_C4.1_H4.1_A4.1_[A6C]_[T7C]_F4.1_[T8C]_[A9C]_T4.1 (ssRNA)
RNA: B5 RNA with G30C, G31C
B22: Ic_S4_P4E.1_K4.1_C4.1_H4.1_A4.1_[A6C]_[T7G]_F4.1_[T8A]_[A9C]_T4.1 (ssRNA)
RNA: B5 RNA with G31A
B23: Ic_S4_P4E.1_K4.1_C4.1_H4.1_A4.1_[A6T]_[T7A]_F4.1_[A9C]_T4.1 (ssRNA)
RNA: B5 RNA with C29U, G30A, G31U
B24: Ic_S4_P4E.1_K4.1_C4.1_H4.1_A4.1_[A6T]_[T7G]_F4.1_[A9G]_T4.1 (ssRNA)
RNA: B5 RNA with C29U, G31U, C32G
B25: Ic_S4_P4E.1_K4.1_C4.1_H4.1_A4.1_[A6T]_[T7C]_F4.1_[T8A]_[A9C]_T4.1 (ssRNA)
RNA: B5 RNA with C29U, G30C, G31A
B26: Ic_S4_P4E.1_K4.1_C4.1_H4.1_A4.1_[A6T]_[T7G]_F4.1_[T8C]_[A9G]_T4.1 (ssRNA)
RNA: B5 RNA with C29U, G31C, C32G
B27: Ic_S4_P4E.1_K4.1_C4.1_H4.1_A4.1_[A6C]_[T7G]_F4.1_[T8C]_[A9C]_T4.1 (ssRNA)
RNA: B5 RNA with G31C
B28: Ic_S4_P4E.1_K4.1_C4.1_H4.1_A4.1_[A6T]_[T7C]_F4.1_[A9C]_T4.1 (ssRNA)
RNA: B5 RNA with C29U, G30C, G31U
B29: Ic_S4_P4E.1_K4.1_C4.1_H4.1_A4.1_[A6C]_[T7A]_F4.1_[T8A]_[A9C]_T4.1 (ssRNA)
RNA: B5 RNA with G30A, G31A
B30: Ic_S4_P4E.1_K4.1_C4.1_H4.1_A4.1_[A6C]_F4.1_[T8A]_[A9G]_T4.1 (ssRNA)
RNA: B5 RNA with G30U, G31A, C32G
B31: Ic_S4_P4E.1_K4.1_C4.1_H4.1_A4.1_[A6C]_[T7A]_F4.1_[T8A]_[A9T]_T4.1 (ssRNA)
RNA: B5 RNA with G30A, G31A, C32U
B32: Ic_S4_P4E.1_K4.1_C4.1_H4.1_A4.1_[A6T]_[T7G]_F4.1_[T8G]_[A9T]_T4.1 (ssRNA)
RNA: B5 RNA with C29U, C32U
B33: Ic_S4_P4E.1_K4.1_C4.1_H4.1_A4.1_[A6T]_[T7G]_F4.1_[T8C]_[A9C]_T4.1 (ssRNA)
RNA: B5 RNA with C29U, G31C
B34: Ic_S4_P4E.1_K4.1_C4.1_H4.1_A4.1_[A6C]_F4.1_[T8C]_[A9G]_T4.1 (ssRNA)
RNA: B5 RNA with G30U, G31C, C32G
B35: Ic_S4_P4E.1_K4.1_C4.1_H4.1_A4.1_[T7C]_F4.1_[T8G]_[A9T]_T4.1 (ssRNA)
RNA: B5 RNA with C29A, G30C, C32U
B36: Ic_S4_P4E.1_K4.1_C4.1_H4.1_A4.1_[A6T]_[T7C]_F4.1_[T8A]_[A9T]_T4.1 (ssRNA)
RNA: B5 RNA with C29U, G30C, G31A, C32U
B37: Ic_S4_P4E.1_K4.1_C4.1_H4.1_A4.1_[A6C]_F4.1_[T8G]_[A9C]_T4.1 (ssRNA)
RNA: B5 RNA with G30U
B38: Ic_S4_P4E.1_K4.1_C4.1_H4.1_A4.1_[A6T]_[T7C]_F4.1_[T8C]_[A9T]_T4.1 (ssRNA)
RNA: B5 RNA with C29U, G30C, G31C, C32U
B39: Ic_S4_P4E.1_K4.1_C4.1_H4.1_A4.1_F4.1_[T8A]_T4.1 (ssRNA)
RNA: B5 RNA with C29A, G30U, G31A, C32A
B40: Ic_S4_P4E.1_K4.1_C4.1_H4.1_A4.1_[A6C]_[T7C]_F4.1_[T8G]_[A9T]_T4.1 (ssRNA)
RNA: B5 RNA with G30C, C32U
B41: Ic_S4_P4E.1_K4.1_C4.1_H4.1_A4.1_[A6C]_[T7A]_F4.1_[A9G]_T4.1 (ssRNA)
RNA: B5 RNA with G30A, G31U, C32G
B42: Ic_S4_P4E.1_K4.1_C4.1_H4.1_A4.1_[A6T]_[T7A]_F4.1_[T8G]_[A9C]_T4.1 (ssRNA)
RNA: B5 RNA with C29U, G30A
B43: Ic_S4_P4E.1_K4.1_C4.1_H4.1_A4.1_[A6T]_F4.1_[T8C]_[A9C]_T4.1 (ssRNA)
RNA: B5 RNA with C29U, G30U, G31C
B44: Ic_S4_P4E.1_K4.1_C4.1_H4.1_A4.1_[A6T]_F4.1_[T8G]_[A9G]_T4.1 (ssRNA)
RNA: B5 RNA with C29U, G30U, C32G
B45: Ic_S4_P4E.1_K4.1_C4.1_H4.1_A4.1_[A6C]_F4.1_[T8C]_[A9T]_T4.1 (ssRNA)
RNA: B5 RNA with G30U, G31C, C32U
B46: Ic_S4_P4E.1_K4.1_C4.1_H4.1_A4.1_[A6T]_[T7A]_F4.1_[T8A]_[A9T]_T4.1 (ssRNA)
RNA: B5 RNA with C29U, G30A, G31A, C32U
B47: Ic_S4_P4E.1_K4.1_C4.1_H4.1_A4.1_[A6T]_[T7A]_F4.1_[T8C]_[A9C]_T4.1 (ssRNA)
RNA: B5 RNA with C29U, G30A, G31C
B48: Ic_S4_P4E.1_K4.1_C4.1_H4.1_A4.1_F4.1_[T8C]_[A9C]_T4.1 (ssRNA)
RNA: B5 RNA with C29A, G30U, G31C
B49: Ic_S4_P4E.1_K4.1_C4.1_H4.1_A4.1_[A6C]_F4.1_[T8A]_[A9C]_T4.1 (ssRNA)
RNA: B5 RNA with G30U, G31A
B50: Ic_S4_P4E.1_K4.1_C4.1_H4.1_A4.1_[T7C]_F4.1_[T8A]_[A9C]_T4.1 (ssRNA)
RNA: B5 RNA with C29A, G30C, G31A
B51: Ic_S4_P4E.1_K4.1_C4.1_H4.1_A4.1_[T7A]_F4.1_[A9T]_T4.1 (ssRNA)
RNA: B5 RNA with C29A, G30A, G31U, C32U
B52: Ic_S4_P4E.1_K4.1_C4.1_H4.1_A4.1_[A6C]_[T7C]_F4.1_[T8A]_T4.1 (ssRNA)
RNA: B5 RNA with G30C, G31A, C32A
B53: Ib_S1_P4E.1_K4.1_C4.1_H4.1_A4.1_[T7A]_F4.1_[T8C]_T4.1 (ssRNA)
RNA: UCUCUUUGUAUAACAUCUCUU
B54: Ib_S1_P4E.1_K4.1_C4.1_H4.1_A4.1_[T7C]_F4.1_[T8A]_T4.1 (ssRNA)
RNA: UCUCUUUGUAUACAAUCUCUU

Target: T1, PUF4 RNA-binding domain
Experiment: Mg; RNA-MaP; 20 mM Na-HEPES pH 7.4, 30 mM KOAc, 0.75 mM MgCl2, 0.1% Tween-20, 5% glycerol, 0.1 mg/mL BSA, 2 mM DTT; 25 C; 0.0125-409.6 nM protein
Settings: tags: N-His6-TEV cleaved; C-SNAP kept, Cy3B-labelled; label: tethered on chip by stalled RNA polymerase

Binder	Kd
B1	13.1 nM
B2	22.1 nM
B3	3.75 nM
B4	11.5 nM
B5	> 2300 nM
B6	158 nM
B7	46.1 nM
B8	29.9 nM
B9	20.4 nM
B10	417 nM
B11	436 nM
B12	31.5 nM
B13	49.5 nM
B14	27.8 nM
B15	12.1 nM
B16	87.3 nM
B17	21.1 nM
B18	89.5 nM
B19	449 nM
B20	40.4 nM
B21	403 nM
B22	> 2300 nM
B23	38.3 nM
B24	75.1 nM
B25	425 nM
B26	593 nM
B27	994 nM

Binder	Kd
B28	34.4 nM
B29	477 nM
B30	40.4 nM
B31	50.5 nM
B32	1310 nM
B33	537 nM
B34	31.1 nM
B35	27.5 nM
B36	113 nM
B37	52 nM
B38	61.9 nM
B39	2.9 nM
B40	172 nM
B41	10.1 nM
B42	794 nM
B43	74.5 nM
B44	230 nM
B45	16.7 nM
B46	95 nM
B47	191 nM
B48	12.3 nM
B49	34.1 nM
B50	51.1 nM
B51	10.2 nM
B52	577 nM
B53	11.8 nM
B54	44.8 nM
